Data as given in patent publication US20080206268A1 (RIJKSUNIVERSITEIT TE LEIDEN, published 2008).
Values belong to the binder of their own block, whether it stands above or below them.

Tests used:
[1] = molecular target: HLA-A1 on HLA typed EBV-LCLs (human); assay: cell-based competition HLA peptide binding assay, flow cytometry;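 also: cells given mild acid treatment, then held in medium with 2% FCS and β2 microglobulin, read out as mean cell fluorescence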
Experimental: (§1) Immediately after mild acidic treatment, the cells were washed with 12 ml Iscove's modified Dulbecco's medium (IMDM, Bio Whittaker, Belgium) containing 2% FCS and resuspended in IMDM containing 2% FCS, 1.5 μg/ml β2 microglobulin (Sigma, St. Louis, Mo., US). […] The mean fluorescence expressed by the cells was determined by a FACScalibur flow cytometer (Becton-Dickinson, St. Louis, Mo., US).

[2] = molecular target: HLA-A11 on HLA typed EBV-LCLs (human); assay: as above
Experimental: as §1

[3] = molecular target: HLA-A24 on HLA typed EBV-LCLs (human); assay: as above
Experimental: as §1

[4] = molecular target: HLA-B7 on HLA typed EBV-LCLs (human); assay: as above
Experimental: as §1

[5] = molecular target: HLA-B60 on HLA typed EBV-LCLs (human); assay: cell-based competition on acid-treated EBV-LCLs against 150 nM fluorescent reference peptide, flow cytometry
Experimental: as §1

[6] = molecular target: HLA-A3 on HLA typed EBV-LCLs (human); assay: as above
Experimental: as §1

B1: HA-1^H/R polymorphic region peptide No. 6, LKECVLRDD (peptide)
peptide: LKECVLRDD
notes: synthetic peptide; also called nonameric HA-1^R peptide
binding result [1]: no binding (tested: 100 to 0.78 µM)
binding result [2]: no binding (tested: 100 to 0.78 µM)
binding result [3]: no binding (tested: 100 to 0.78 µM)
binding result [4]: no binding (tested: 100 to 0.78 µM)

B2: HA-1^H/R polymorphic region peptide No. 2, EKLKECVLR (peptide)
peptide: EKLKECVLR
notes: as for B1
binding result [1]: no binding (tested: 100 to 0.78 µM)
binding result [2]: no binding (tested: 100 to 0.78 µM)
binding result [3]: no binding (tested: 100 to 0.78 µM)
binding result [4]: no binding (tested: 100 to 0.78 µM)

B7: HLA-A3 binder-positive control peptide KQSSKALQR (peptide)
peptide: KQSSKALQR
IC50 [6]: 9.4 µM

B10: decameric HA-1^R peptide VLRDDLLEAR (peptide)
peptide: VLRDDLLEAR
notes: synthetic peptide; also called Peptide No. 18
IC50 [6]: 37.5 µM

Second part, the binder after the results:

binding result [1]: no binding (tested: 100 to 0.78 µM)
binding result [2]: no binding (tested: 100 to 0.78 µM)
binding result [3]: no binding (tested: 100 to 0.78 µM)
binding result [4]: no binding (tested: 100 to 0.78 µM)
B3: HA-1^H/R polymorphic region peptide No. 20, LRDDLLEAR (peptide)
peptide: LRDDLLEAR
notes: as for B1

binding result [1]: no binding (tested: 100 to 0.78 µM)
binding result [2]: no binding (tested: 100 to 0.78 µM)
binding result [3]: no binding (tested: 100 to 0.78 µM)
binding result [4]: no binding (tested: 100 to 0.78 µM)
B4: HA-1^H/R polymorphic region peptide No. 4, KLKECVLRD (peptide)
peptide: KLKECVLRD
notes: as for B1

binding result [1]: no binding (tested: 100 to 0.78 µM)
binding result [2]: no binding (tested: 100 to 0.78 µM)
binding result [3]: no binding (tested: 100 to 0.78 µM)
binding result [4]: no binding (tested: 100 to 0.78 µM)
B5: HA-1^H/R polymorphic region peptide No. 14, CVLRDDLLE (peptide)
peptide: CVLRDDLLE
notes: as for B1

binding result [1]: no binding (tested: 100 to 0.78 µM)
binding result [2]: no binding (tested: 100 to 0.78 µM)
binding result [3]: no binding (tested: 100 to 0.78 µM)
binding result [4]: no binding (tested: 100 to 0.78 µM)
IC50 [5]: 3.9 µM
B6: nonameric HA-1^R peptide KECVLRDDL (peptide)
peptide: KECVLRDDL
notes: synthetic peptide; also called Peptide No. 8

binding result [1]: no binding (tested: 100 to 0.78 µM)
binding result [2]: no binding (tested: 100 to 0.78 µM)
binding result [3]: no binding (tested: 100 to 0.78 µM)
binding result [4]: no binding (tested: 100 to 0.78 µM)
B8: peptide ECVLRDDLL (peptide)
peptide: ECVLRDDLL
notes: synthetic peptide; also called Peptide No. 12; nonameric HA-1^R peptide

binding result [1]: no binding (tested: 100 to 0.78 µM)
binding result [2]: no binding (tested: 100 to 0.78 µM)
binding result [3]: no binding (tested: 100 to 0.78 µM)
binding result [4]: no binding (tested: 100 to 0.78 µM)
B9: HA-1^H/R polymorphic region peptide No. 22, RDDLLEARR (peptide)
peptide: RDDLLEARR
notes: as for B1
